{
  "source": "the nanobody polyreactivity screen of Harvey et al. (2022)",
  "data": [
    {"assay": "yeast display, Sf9 membrane polyspecificity reagent, FACS + sequencing; frameworks hold sequencing errors", "method_in_brief": "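Galactose induction of a Saccharomyces cerevisiae BJ5465 synthetic nanobody display library ran 36–48 hours. The cells were then stained for 1 hour at 4 °C with 10% biotinylated, detergent-solubilized Sf9 membrane reagent, pulled down on streptavidin microbeads and FACS-sorted into low and high (top ~1%) gates on expression and reagent-binding fluorescence. Labels for polyreactivity follow the gate of origin.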", "values": [
      {"sequence": "QVQLVESGGGLVQAGGSLRLSCAASASIYAHYEMGWYRQAPGKERELVAAITASGGTTYYADSVKGRFTISRDNAKNTVYLQMNSLKPEDTAVYYCNAGKRTFLYDRDDYWGQGTQVTVSS", "polyreactivity (PSR sort gate)": "high polyreactivity"},
      {"sequence": "QVQLVESGGGLVQAGGSLRLSCAASASTFSTYAMGSYRQAPGKERELVAAISWSGGSTNYADSVKGRLTISRDIAKYTVYLQMNSLKPEDTAVYYCGARWTSRYDYWGQGTQVTVSS", "polyreactivity (PSR sort gate)": "high polyreactivity"},
      {"sequence": "QVQLVESGGGLVQAGGSLRLSCAASASTFWKYAMGWYRQAPGKEREFVAAITRSGGNTYYADSVQGRFTISRDNAKNTVFLQMNSLKPEDTAVYYCDKVTTVPYTNDYWGQGTQVTVSS", "polyreactivity (PSR sort gate)": "high polyreactivity"},
      {"sequence": "QVQLVESGGGLVQAGGSLRLSCAASASTLYYNAMAWYIQAPGKERELVAAITSGGSTSYADSVKGRFTISRDNAKNTVYLQMNSLKPEDTAVYYCAAVFYRRFDYWGQGTQVTVSS", "polyreactivity (PSR sort gate)": "low polyreactivity"},
      {"sequence": "QVQLVESGGGLVQAGGSLRLSCAASASTTYYAMGWYRQAPGKERELVAAISFSGGSTFYADSVKGRFTISRDNAKNTVYLQMNCLKPEDTGVYYCATQEGPHKLDPRGYYWGQGTQVTVSS", "polyreactivity (PSR sort gate)": "low polyreactivity"},
      {"sequence": "QVQLVESGGGLVQAGGSLRLSCAASDTPSSSMLMGWYRQAPGKERELVAAISGSDGTTYYADSVKGRFTISRDNAKNTVYLQMNSLKPEDTAVYYCAADDRVDSGYIKDDYWGQGTQVTVSS", "polyreactivity (PSR sort gate)": "low polyreactivity"},
      {"sequence": "QVQLVESGGGLVQAGGSLRLSCAASEFIFARNGMGWYRQAPGKERELVAAITNSGSTYADSVKGRFTISRDNAKNTVYLQMNSLKPEDTAVYYCNKDPGNVSSYTGGGYWGQGTQVTVSS", "polyreactivity (PSR sort gate)": "low polyreactivity"},
      {"sequence": "QVQLVESGGGLVQAGGSLRLSCAASGAIFGAITMGWYREAPGKERELVAAISKRGGSTYYADSVKGRFTSSRDNAKNTVYLQMNSLKPEDTAVYYCNATPRYLRQYVDPNWGYDYWGQGTQVTVSS", "polyreactivity (PSR sort gate)": "low polyreactivity"},
      {"sequence": "QVQLVESGGGLVQAGGSLRLSCAASGAMGCYRQAPGKERELVAGITSGGSTNYADSEKGRFTISRDNAKNTVYLQMNSLKPEDTAVYYCNAVGGPRWFSVGWPYDYWGQGTQVTVSS", "polyreactivity (PSR sort gate)": "low polyreactivity"},
      {"sequence": "QVQLVESGGGLVQAGGSLRLSCAASGATFGRNAMGWYRQAPGKERELVAAISWSASRTSYADSVKGRFTISRDNAKNTVYLQMNSLKPEDTAVYYCAARIWRSYYPYDYWGQGTQVTVSS", "polyreactivity (PSR sort gate)": "high polyreactivity"},
      {"sequence": "QVQLVESGGGLVQAGGSLRLSCAASGATFGYYAMGWYRQAPGKEMEFVARITQRGSRTYYADSVKGRFTISRDNAKNTVYLQMNSLKPEDTAVYYCDAEVWWTHNGRGAYGYDYWGQGTHVTVSS", "polyreactivity (PSR sort gate)": "high polyreactivity"},
      {"sequence": "QVQLVESGGGLVQAGGSLRLSCAASGCTIWSSAMGWYRQAPGKERELVASITWSGGSTYADSVKGRFTISRDNAKNTVYLQMNSLKPEDTAVYYCARESTLTYYSDDFDYWGQGTQVTVSS", "polyreactivity (PSR sort gate)": "low polyreactivity"},
      {"sequence": "QVQLVESGGGLVQAGGSLRLSCAASGFAFSYYAMGWYRPAPGKEREFVASIDWSGGSTYYADSVKGRFTISRDNAKNTVYLQMTSLKPEDTAVYYCAAELDYFPGYDYWGQGTQVTVSS", "polyreactivity (PSR sort gate)": "low polyreactivity"},
      {"sequence": "QVQLVESGGGLVQAGGSLRLSCAASGFICRGNAMGLYRQAPGKERELVASISRTGDTTYYADSVKGRFTISRDNAKNTVYLQMNSLTPEDTAVYYCARRSRVGYPLDSWGQATQVTVSS", "polyreactivity (PSR sort gate)": "high polyreactivity"},
      {"sequence": "QVQLVESGGGLVQAGGSLRLSCAASGFIFADYMGWYRQAPGKERELDASISSTGSSTYADSVKGRFTISRDNAKNTVYLQMNSLKPEDTAVYYCAATGVWYSWYEYASEYDYWGQGTQVTVSS", "polyreactivity (PSR sort gate)": "high polyreactivity"},
      {"sequence": "QVQLVESGGGLVQAGGSLRLSCAASGFIFAEYAMGWYRQATGKERELDAGITSGGSTSYADSVKGRFTISRDNAKNTVYLQMTSLKPDATAVYYCAATWYYHYNDWKHWYEYGYWGLGTQVTVSS", "polyreactivity (PSR sort gate)": "low polyreactivity"},
      {"sequence": "QVQLVESGGGLVQAGGSLRLSCAASGFIFAGYAMGWYRQAPGKERELVAAISRRGGRTNYADSVKGRFTISRDNAKNTVYLQMNSLKPEDTAVFYCAAVQASVYYGLGRFDYWGQGTQVTVSS", "polyreactivity (PSR sort gate)": "high polyreactivity"},
      {"sequence": "QVQLVESGGGLVQAGGSLRLSCAASGFIFAINAMGWYRQAPGKEREFVAAISSDGASTYYADSVKGRFTISRDNAKNTVYLQMNSLKPEDTAVYYCNAVPYEWTYPYEYYYWGQGTQVTVSS", "polyreactivity (PSR sort gate)": "low polyreactivity"},
      {"sequence": "QVQLVESGGGLVQAGGSLRLSCAASGFIFAIYAMGWYRQAPGKERELVAAISSSGGSTYYADSVKGRFTISRDNAKNTVYLQMNSLKPEDTAVYYCNADWSLYWLDYWGQGTQVTVSS", "polyreactivity (PSR sort gate)": "high polyreactivity"},
      {"sequence": "QVQLVESGGGLVQAGGSLRLSCAASGFIFANAIGWYRQAPGKEMELVAAITWSGDSTYYADSVKGRFTISRDNAKNTVYLQMNSLKPEDTAVYYCAAVVTNAYRYDYWGQGTQVTVSS", "polyreactivity (PSR sort gate)": "low polyreactivity"},
      {"sequence": "QVQLVESGGGLVQAGGSLRLSCAASGFIFAPNVMGWYRQAPGKERELVAAINISGGSTSYADSVKGRFTISRDNAKNTVYLQMNSLKPEDTAVYYCAAEIPAYAYSYSYDYWGQGTQVTVSS", "polyreactivity (PSR sort gate)": "low polyreactivity"},
      {"sequence": "QVQLVESGGGLVQAGGSLRLSCAASGFIFARYAMGWYRQAPGKERELVAAISSSGGITYYADSVKGRFTISRDNAKNTVYFQMNSLKPEDTAVYYCAAPLGGGARWGRWWLYDSWGQGTQVTVSS", "polyreactivity (PSR sort gate)": "low polyreactivity"},
      {"sequence": "QVQLVESGGGLVQAGGSLRLSCAASGFIFARYAMGWYRQAPGKERELVAAISWSGARTYYADSVKGRFTISRDNAKNTVYLQMNSLKPEDTAVYYCNADYRKVTGDSYDYWGQGTQVTVSS", "polyreactivity (PSR sort gate)": "high polyreactivity"},
      {"sequence": "QVQLVESGGGLVQAGGSLRLSCAASGFIFASNAMGWYRQEPGKERELVASITIGDSTYYADSVKGRFTISRDNAKNTVYLQMNSLKPEDTAVYYCAAVKTVDVGYDYWGQGTQVTVSS", "polyreactivity (PSR sort gate)": "low polyreactivity"},
      {"sequence": "QVQLVESGGGLVQAGGSLRLSCAASGFIFASYARGWYRQAPGKERELVAAISSSGGSTYADSVKGRFTISRDNAKNTVYLQMNSLKPEDTAVYYCAAQGYGDNRNKYYYWGQGTQVTISS", "polyreactivity (PSR sort gate)": "high polyreactivity"},
      {"sequence": "QVQLVESGGGLVQAGGSLRLSCAASGFIFASYTMGWYRQAPGNEREWVAAISRSGGRTYYADSVKGRFTISRDNAKKTVYLQMNSLKPEDTAVYYCATLETTGVNYWGQGTQVTVSS", "polyreactivity (PSR sort gate)": "high polyreactivity"},
      {"sequence": "QVQLVESGGGLVQAGGSLRLSCAASGFIFATYTMGWYRQAPGKERELVAAITWRGGSTYYADSVKGRFTISRDNAKNTVYLQMNSLKPEDTAVYYCAAPDVYSYRYVEDDYWGQGTQVTVSS", "polyreactivity (PSR sort gate)": "low polyreactivity"},
      {"sequence": "QVQLVESGGGLVQAGGSLRLSCAASGFIFATYTMGWYRQAPGKERKLVAAITWRGGSTYYADSVKGRFTISRDNAKNSVYLQMNSLKPEDTAVYYCAAQDVYSYRYVEDDYWGQGTQVTVSS", "polyreactivity (PSR sort gate)": "low polyreactivity"},
      {"sequence": "QVQLVESGGGLVQAGGSLRLSCAASGFIFAWYAMGWYRQAPGKERELVADITSGGDTSYADSVKGRFTISRDNAKNTVYLQMNSLKPEDTAVYYCARDVYIWYGYGYFPEYEYWGQGTQVTVSS", "polyreactivity (PSR sort gate)": "low polyreactivity"},
      {"sequence": "QVQLVESGGGLVQAGGSLRLSCAASGFIFAYYAMGLYRQAPGKERELVAAITSDGSTYYADSVKGRFTISRDNAKNTVYLQMNSLKPEDTAVYYCNTYWVLRPGYNYWGQGTQVTVSS", "polyreactivity (PSR sort gate)": "high polyreactivity"},
      {"sequence": "QVQLVESGGGLVQAGGSLRLSCAASGFIFAYYAQGWYRQAPGKERELVAAITSRGGSTYYADSVKGRFTSSRDNAKNTVYVQMNSLKPEDTAVYYCAGRGYQRQYYYWGQGTQVTVSS", "polyreactivity (PSR sort gate)": "high polyreactivity"},
      {"sequence": "QVQLVESGGGLVQAGGSLRLSCAASGFIFCPNDMGWYRQAPGKERELVADISGTGGGTYADSVKGRFTISRDNAKNTVYLQMNSLKPEDTAVYYCAALYGLYVSPYWYTGYYWGQGTQVTVSS", "polyreactivity (PSR sort gate)": "low polyreactivity"},
      {"sequence": "QVQLVESGGGLVQAGGSLRLSCAASGFIFDAYALGWYRQAPGKERELVAAITRGNTYYADSVKGRFTISRDNAKNTVYLQMNSLKPEDTAVYYCAARYWQSYRSQVTHSSTLDYWGQGTQVTVSS", "polyreactivity (PSR sort gate)": "low polyreactivity"},
      {"sequence": "QVQLVESGGGLVQAGGSLRLSCAASGFIFDEYAMGWYRQAPGKERELVAAISWSGSRTYYADSVKGRFTISRDNAKNTVYLQMNSLKPQDTAVDYCAKVTAVGAGRRNYWGQGTQVTVSS", "polyreactivity (PSR sort gate)": "low polyreactivity"},
      {"sequence": "QVQLVESGGGLVQAGGSLRLSCAASGFIFDEYTMGWYRQAPGKERELVAAITSSGGTDYADSVKGRFTISRDNAKNTVYLQMNSLKPEDTAVYYCNTEDYYRDYDYWGQGTQVTVSS", "polyreactivity (PSR sort gate)": "low polyreactivity"},
      {"sequence": "QVQLVESGGGLVQAGGSLRLSCAASGFIFDFYTMGWYRQAPGKERELVAAITNAGSTYYADSVKGRFTISRDNAMNTFYLHMNSLKPEDTAVYYCAAYYRSRHHGYDSWGQGTQVTVSS", "polyreactivity (PSR sort gate)": "low polyreactivity"},
      {"sequence": "QVQLVESGGGLVQAGGSLRLSCAASGFIFDGYAMGWYRQAPGKERELVAAISSVGSTYYADSVKGRFTISRDNAKNTVYLQMNSLKPEDTAVYYCARGLEERYDYWGQGTQVTVSS", "polyreactivity (PSR sort gate)": "low polyreactivity"},
      {"sequence": "QVQLVESGGGLVQAGGSLRLSCAASGFIFDNNAMGWYRQAPGKERELVATITSGGRTNYADSVKVRFTISRDNAKNTVYLQMNSLKPEDTAVYYCAAGYYLGSRRKTRDYWGQGTQVTVSS", "polyreactivity (PSR sort gate)": "low polyreactivity"},
      {"sequence": "QVQLVESGGGLVQAGGSLRLSCAASGFIFDPNAMGWYRQAPGRERELVAAISSSGGRTYYADSVKGRFTISRDNAKNTVYLQMNSLKPEDTAVYYCATDTSVQGQEYDYWGQGTQVTVSS", "polyreactivity (PSR sort gate)": "low polyreactivity"},
      {"sequence": "QVQLVESGGGLVQAGGSLRLSCAASGFIFDPYAMGWYRQAPGKERELVAAISRGGSTYYADSVKGRFTISRDNAKNIVYLQMNSLKPEDTAVYYCAAVFKFTREYSTGIRYYYWGQGTQVTVSS", "polyreactivity (PSR sort gate)": "high polyreactivity"},
      {"sequence": "QVQLVESGGGLVQAGGSLRLSCAASGFIFDQNAMGWYRQAPGKERELVAAITRSGGCTYYADSVKGRFTISRDNAKNTVYLQMYSLNPEDTAVYYCAADLSYRGATRGDYYWGPGTQVTVSS", "polyreactivity (PSR sort gate)": "low polyreactivity"},
      {"sequence": "QVQLVESGGGLVQAGGSLRLSCAASGFIFDQYAMGWYRQAPGKERELVAAITTGGDTNYADSVKGRFTISRDNAKNTVYLQMISLKPDDSAVYYCAAKKWLTSGAFDRVFIEFDYWGQGTQVTVSS", "polyreactivity (PSR sort gate)": "low polyreactivity"},
      {"sequence": "QVQLVESGGGLVQAGGSLRLSCAASGFIFDRYAMGWYRQAPGKERELVAAITGSGGSTYYGDSVKGRFTISRDNAKNTVYLQMNSLKPEDTAVYYCNTGGRSGSPGYDYWGQGTQVTVSS", "polyreactivity (PSR sort gate)": "high polyreactivity"}
    ]}
  ]
}
